# Laboratory results reported in patent US20260028391A1 (HUMABS BIOMED, published 2026).
# B1: MPK190-v1.3-rIgG1m17,1-LS (antibody, V domains shown)
# VH: QVQLVESGGGLVKPGGSLTLSCAASGFSISGYGMNWVRQAPGRGLEWVASISASSTYIYYADSMKGRFTISRDNGKTSLYLQMKSLRAEDTAVYYCARAPIEPPYFDLWGRGTLVTVSS
# VL: QSVLTQPPSVSGAPGQRVTISCTGSSSNIGAGYDVHWYQHLPGKAPKVLIYGNTNRPSVVPDRFSGSNSGASASLAISGLQAEDEADYFCQSYDRRLSGPIFGGGTKLTVLG
# B2: MPK190 (antibody, V domains shown)
# VH: EVQLVESGGGLVKPGGSLTLSCAASGFSISGYGMNWVRQAPGRGLEWVASISASSTYIYYADSMKGRFTISRDNGKTSLYLQMKSLRAEDTAVYYCARAPIEPPYFDLWGRGTLVTVSS
# VL: QSVLTQPPSVSGAPGQRVTISCTGSNSNIGAGYDVHWYQHLPGKAPKVLIYGNNNRPSVVPDRFSGSNSGASASLAISGLQAEDEADYFCQSYDRRLSGPIFGGGTKLTVL
# notes: Tested as MPK190-rIgG1-LS (IgG1 with M428L/N434S); also called MPK190-rIgG1-LS; MPK190-rIgG1-LS(4B6)
# B3: MPK176-rIgG1-LS (antibody, V domains shown)
# VH: QVQLVQSGAEVKKPGASVRVSCKASGYTLTAYGISWVRQAPGQGLEWMGWISPKHGNTHYAQRFQGRVTMTTDTSTSTAYMELRSLRPDDTAVYFCAREGVDIMAVPWYFDYWGQGTLVAVSS
# VL: SYELTQPPSVSVAPGQTARISCGGNNIGSKSVHWYQQKPGQAPVVVVYDDSDRPSGIPERFSGSNSGNTATLTISGVEAGDEADYFCQVWDSATDHWVFGGGTKLTVL
# notes: Recombinant human IgG1 with M428L/N434S (LS)
# B4: MPH12 (antibody, V domains shown)
# VH: QVQLVESGGGLVKPGGSLRLSCVASGFTFSGFYMKWIRQAPGKGLEWVSSISASGSYTNYADSVEGRFTVSRDNAKNSLFLLMSSLRAEDTAVYYCARGDSYCGASACHGEFFHKWGQGTLVTVSS
# VL: QSVLTQPPSVSGAPGQRVTISCTGSDSNIGADFDVHWYQQLPGTAPKLLIYGNINRPSGVPDRFSGSRSGTSAFLAITRLQAEDEADYYCQSYDRSLHYVFGAGTKVTVL
# notes: also called MPH12-rIgG1; MPH12-rIgG1-LS
# B5: MPK65-v2-rIgG1-LS (antibody, V domains shown)
# VH: QVPLVQSGAEVKKPGESLKISCKGSGYSFINYWIGWVRQMPGKGLEWMGVIYPFDSDTKYSPSFQGHVTISADKSSNTAYVQWSSLKASDTAMYYCARFTFGIAVVTDDVSGEGQAFEIWGQGTMVTVSS
# VL: EIVMMQSPATLSVSPGERATLSCRASQSVAGNLAWYQQRPGQAPRLLIYGASTRATGVPARFSGSGSETEFTLTISSLQSEDFAVYYCHQYSNWPQAFGQGTRLDIK
# notes: as for B3
# B6: MPK65-v2 (antibody, human IgG1, V domains shown)
# VH: QVPLVQSGAEVKKPGESLKISCKGSGYSFINYWIGWVRQMPGKGLEWMGVIYPFDSDTKYSPSFQGHVTISADKSSNTAYVQWSSLKASDTAMYYCARFTFGIAVVTDDVSGEGQAFEIWGQGTMVTVSS
# VL: EIVMMQSPATLSVSPGERATLSCRASQSVAGNLAWYQQRPGQAPRLLIYGASTRATGVPARFSGSGSETEFTLTISSLQSEDFAVYYCHQYSNWPQAFGQGTRLDIK
# notes: also called MPK65-v2-rIgG1-LS
# B7: MPK201-rIgG1-LS (antibody, V domains shown)
# VH: EVQLVQSGAEVKKPGESLKISCQGSGYSFINYWIGWVRQKPGKGLEWMGIIYPFDSETKYSPSFQGHVTFSADKSINTAYVQWSSLRASDTAMYYCARFTFGLAVTTADVSGEGQAFEIWGQGTMVTVSS
# VL: EIVMMQSPATLSVSPGERATLSCRASQSVAGNLAWYQQRPGQAPRLLVYGASTRASGVPARFSGSGSETEFTLTISSLQSEDFAVYYCHHYSDWPQAFGQGTRLDIK
# notes: as for B3
# Assays:
# [1] = biological target: RSV A fusion glycoprotein (F), virus of the neutralisation assays of Tables 54 and 57 (RSV A); test: cell-based or functional assay
# [2] = biological target: RSV-B B18537/62 F protein (RSV B, strain B18537/62, UniProt P13843 26-574); test: cell-based or functional assay
# [3] = biological target: RSV-B B9320 F protein (RSV B, strain B9320); test: cell-based or functional assay
# [4] = biological target: RSV-long strain fusion glycoprotein (F) (RSV, long strain, UniProt P12568 26-574); test: cell-based or functional assay
# [5] = biological target: T1, RSV F B, B Ref (RSV B); test: FACS, % binding to RSV F B variants
# T1 construct: whole, on cells
# [6] = biological target: T2, RSV F B K68N-N201S (RSV B); test: FACS, % binding to RSV F B variants
# T2 construct: whole, on cells
# [7] = biological target: T3, RSV F B K68N-N208S (RSV B); test: FACS, % binding to RSV F B variants
# T3 construct: whole, on cells
# [8] = biological target: T4, RSV F B N201S (RSV B); test: FACS, % binding to RSV F B variants
# T4 construct: whole, on cells
# [9] = biological target: T5, RSV F B N208D (RSV B); test: FACS, % binding to RSV F B variants
# T5 construct: whole, on cells
# [10] = biological target: T6, RSV F B N208S (RSV B); test: FACS, % binding to RSV F B variants
# T6 construct: whole, on cells; also called mutant N208S
# [11] = biological target: T7, RSV F B S443P (RSV B); test: FACS, % binding to RSV F B variants
# T7 construct: whole, on cells; also called mutant S443P
# [12] = biological target: T8, MPV F D280N mutant expressed on Expi293F transfected cells (metapneumovirus (MPV), strain ); test: FACS on Expi293F cells transfected with MPV-F D280N; mouse serum taken 2 h after injection
# T8 construct: whole, on cells; also called MPV D280N F; D280N F
# [13] = biological target: T8, MPV F D280N mutant expressed on …; test: FACS on Expi293F cells transfected with MPV-F D280N; mouse serum taken 56 d after injection
# [14] = biological target: RSV A2 (screening GFP strain) fusion glycoprotein (F) (RSV A); test: cell-based or functional assay
# [15] = biological target: RSV B (screening GFP strain) fusion glycoprotein (F) (RSV B); test: cell-based or functional assay
# [16] = biological target: RSV A 2001/3-12 fusion glycoprotein (F) (RSV A, strain A 2001/3-12); test: cell-based or functional assay
# [17] = biological target: RSV A1997/12-35 fusion glycoprotein (F) (RSV A, strain A1997/12-35); test: cell-based or functional assay
# [18] = biological target: RSV A1998/3-2 fusion glycoprotein (F) (RSV A, strain A1998/3-2); test: cell-based or functional assay
# [19] = biological target: RSV A2 VR 1540 fusion glycoprotein (F) (RSV A, strain A2 (VR 1540), UniProt P03420 26-574); test: cell-based or functional assay
# [20] = biological target: RSV A 2000/3-4 fusion glycoprotein (F) (RSV A, strain A 2000/3-4); test: cell-based or functional assay
# [21] = biological target: RSV Ds Red 5 fusion glycoprotein (F) (RSV, strain printed as Ds Red 5); test: cell-based or functional assay
# [22] = biological target: T9, RSV-A F (RSV A); test: affinity; method not given
# T9 construct: also called RSV F A
# [23] = biological target: T10, RSV-B F (RSV B); test: affinity; method not given
# T10 construct: also called RSV F B
# [24] = biological target: DS-Cav1 RSV F (respiratory syncytial virus (RSV); …, UniProt P13843 26-513); test: ELISA on RSV-F Ds-Cav1, 1 ug/ml
# [25] = biological target: T11, RSV fusion glycoprotein (RSV-F), pre-fusion conformation, recombinant protein loaded on sensors (respiratory syncytial virus (RSV), …); test: ELISA-type titration, OD 405 nm, on Pre-F
# T11 construct: also called RSV-F wt; RSV-F protein
# [26] = biological target: post-fusion RSV F protein (respiratory syncytial virus (RSV), …); test: ELISA-type titration, OD 405 nm, on Post-F
# [27] = biological target: RSV A Randall fusion glycoprotein (F) (RSV A, strain Randall); test: cell-based or functional assay
# [28] = biological target: RSV B 9719/09 fusion glycoprotein (F) (RSV B, strain 9719/09); test: cell-based or functional assay
# [29] = biological target: RSV A2 BPR-344-00 (BEI NR-12149) fusion glycoprotein (F) (RSV A, strain A2, UniProt P03420 26-574); test: cell-based or functional assay
# [30] = biological target: RSV B1 BPR-348-00 (BEI NR-4052) fusion glycoprotein (F) (RSV B, strain B1, UniProt O36634 26-574); test: cell-based or functional assay
# [31] = biological target: T11, RSV fusion glycoprotein (RSV-F), …; test: method not said in the sentence; RSV-A as printed
Binder,"IC50, virus neutralization [14] [ng/mL]","IC50, virus neutralization [15] [ng/mL]","IC50, virus neutralization [16] [ng/mL]","IC50, virus neutralization [17] [ng/mL]","IC50, virus neutralization [18] [ng/mL]","IC50, virus neutralization [19] [ng/mL]","IC50, virus neutralization [20] [ng/mL]","IC50, virus neutralization [21] [ng/mL]",Kd [23] [nM],also measured
B1,,,,,,,,,,"IC50, neutralization of RSVA [1]: 15.3 ng/mL; EC50, virus neutralization (Fab testing) [2]: 0.0247 nM; EC50, virus neutralization (Fab testing) [3]: 0.017 nM; EC50, virus neutralization (Fab testing) [4]: 0.105 nM; % binding [5]: 72.1%; % binding [6]: 63.3%; % binding [7]: 61.5%; % binding [8]: 63.1%; % binding [9]: 60.5%; % binding [10]: 63.4%; % binding [11]: 66.7%"
B2,,,,,,,,,,EC50 [12]: 62 ng/mL; EC50 [13]: 84 ng/mL
B3,4.15,2.19,2.12,2.08,2.45,2.87,2.3,1.06,0.001,Kd [22]: 0.0591 nM
B4,,,,,,,,,,EC50 (read off the curve) [24]: ~2 ng/mL; EC50 (read off the curve) [25]: ~10 ng/mL; EC50 (read off the curve) [26]: ~30 ng/mL
B5,0.955,0.607,0.59,0.56,0.17,0.95,0.74,0.47,0.404,"IC50, virus neutralization [27]: 1.7 ng/mL; IC50, virus neutralization [28]: 0.741 ng/mL; IC50, virus neutralization [29]: 0.5 ng/mL; IC50, virus neutralization [30]: 0.4 ng/mL"
B6,,,,,,,,,,Kd [31]: < 0.1 nM
B7,2.83,1.49,1.77,2.33,3.01,1.53,1.26,1.23,0.001,Kd [22]: 0.001 nM
